T1: FcγRIIb (human, UniProt P31994 43-217)
T1 construct: extracellular domain; also called FcgRIIb; 2b; not shown: His tag attached to the C terminus
T1 sequence (looked up): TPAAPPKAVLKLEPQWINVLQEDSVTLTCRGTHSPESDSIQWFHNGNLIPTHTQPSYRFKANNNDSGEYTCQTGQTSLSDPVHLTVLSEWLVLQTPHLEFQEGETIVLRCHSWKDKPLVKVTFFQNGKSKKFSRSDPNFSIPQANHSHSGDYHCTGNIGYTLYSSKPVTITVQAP

T2: FcγRIIa H (human, UniProt P12318 34-217)
T2 construct: extracellular domain; also called FcgRIIa H; 2aH; not shown: His tag attached to the C terminus
T2 sequence (looked up): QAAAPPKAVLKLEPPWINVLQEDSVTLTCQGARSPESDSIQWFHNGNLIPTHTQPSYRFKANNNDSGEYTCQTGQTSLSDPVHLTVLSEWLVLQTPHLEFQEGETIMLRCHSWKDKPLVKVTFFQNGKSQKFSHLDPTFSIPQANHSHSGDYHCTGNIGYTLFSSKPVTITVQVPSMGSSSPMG

B1: GpH7-A5/GpH7-B3 variant G236_20W/GpL16-k0 (antibody, human IgG1, kappa)
heavy 1: not shown
heavy 2: not shown
light: DIVMTQSPLSLPVTPGEPASISCQASESLVHSNRNTYLHWYLQKPGQSPQLLIYKVSNRFSGVPDRFSGSGSGTDFTLKISRVEAEDVGVYYCSQNTHVPPTFGQGTKVEIERTVAAPSVFIFPPSDEQLKSGTASVVCLLNNFYPREAKVQWKVDNALQSGNSQESVTEQDSKDSTYSLSSTLTLSKADYEKHKVYACEVTHQGLSSPVTKSFNRGEC
notes: Heterodimerized anti-glypican-3 IgG1; mutation in one H chain only; also called He Ab; GpH7-A5/GpH7-B3-03-20W/GpL16-k0
B2: GpH7-A5/GpH7-B3 variant E269_01G/GpL16-k0 (antibody, human IgG1, kappa)
heavy 1: not shown
heavy 2: not shown
light: B1 light
notes: Heterodimerized anti-glypican-3 IgG1; mutation in one H chain only; also called He Ab
B3: GpH7-A5/GpH7-B3 variant D265_11K/GpL16-k0 (antibody, human IgG1, kappa)
heavy 1: not shown
heavy 2: not shown
light: B1 light
notes: as for B2
B4: GpH7-A5/GpH7-B3 variant D265_16H/GpL16-k0 (antibody, human IgG1, kappa)
heavy 1: not shown
heavy 2: not shown
light: B1 light
notes: as for B2
B5: GpH7-A5/GpH7-B3 variant D265_03V/GpL16-k0 (antibody, human IgG1, kappa)
heavy 1: not shown
heavy 2: not shown
light: B1 light
notes: as for B2
B6: GpH7-A5/GpH7-B3 variant D265_19Q/GpL16-k0 (antibody, human IgG1, kappa)
heavy 1: not shown
heavy 2: not shown
light: B1 light
notes: as for B2
B7: GpH7-A5/GpH7-B3 variant D265_06M/GpL16-k0 (antibody, human IgG1, kappa)
heavy 1: not shown
heavy 2: not shown
light: B1 light
notes: as for B2
B8: GpH7-A5/GpH7-B3 variant D265_15Y/GpL16-k0 (antibody, human IgG1, kappa)
heavy 1: not shown
heavy 2: not shown
light: B1 light
notes: as for B2
B9: GpH7-A5/GpH7-B3 variant H268_04F/GpL16-k0 (antibody, human IgG1, kappa)
heavy 1: not shown
heavy 2: not shown
light: B1 light
notes: as for B2
B10: GpH7-A5/GpH7-B3 variant D265_18N/GpL16-k0 (antibody, human IgG1, kappa)
heavy 1: not shown
heavy 2: not shown
light: B1 light
notes: as for B2
B11: GpH7-A5/GpH7-B3 variant D265_04F/GpL16-k0 (antibody, human IgG1, kappa)
heavy 1: not shown
heavy 2: not shown
light: B1 light
notes: as for B2
B12: GpH7-A5/GpH7-B3 variant D265_12R/GpL16-k0 (antibody, human IgG1, kappa)
heavy 1: not shown
heavy 2: not shown
light: B1 light
notes: as for B2
B13: GpH7-A5/GpH7-B3 variant D265_13S/GpL16-k0 (antibody, human IgG1, kappa)
heavy 1: not shown
heavy 2: not shown
light: B1 light
notes: as for B2
B14: GpH7-A5/GpH7-B3 variant D265_20W/GpL16-k0 (antibody, human IgG1, kappa)
heavy 1: not shown
heavy 2: not shown
light: B1 light
notes: as for B2
B15: GpH7-A5/GpH7-B3 variant G236_19Q/GpL16-k0 (antibody, human IgG1, kappa)
heavy 1: not shown
heavy 2: not shown
light: B1 light
notes: as for B2
B16: GpH7-A5/GpH7-B3 variant G236_16H/GpL16-k0 (antibody, human IgG1, kappa)
heavy 1: not shown
heavy 2: not shown
light: B1 light
notes: as for B2
B17: GpH7-A5/GpH7-B3 variant D265_14T/GpL16-k0 (antibody, human IgG1, kappa)
heavy 1: not shown
heavy 2: not shown
light: B1 light
notes: as for B2

Target: T1, FcγRIIb
Experiment: SPR (Biacore), antibody captured on antigen peptide chip, FcγR as analyte; relative binding activity
Method: (§1) The heterodimerized antibodies He Abs in which one of the H chains was introduced with an alteration were assayed for their binding activities to each activating FcγR and inhibitory FcγR according to the method described in Example 4. […] The activating FcγRs in FIGS. 26, 27, 28, and 29 are FcγRIa, FcγRIIa (R), FcγRIIa (H), and FcγRIIIa, respectively.
(§2) Analysis of interaction between objective antibody and the FcγR was carried out using Biacore T100 (GE Healthcare). HBS-EP+ (GE Healthcare) was used as the running buffer, and the measurement temperature was set to 25° C. Chips produced by immobilizing the antigen peptide by the amine coupling method to a Series S Sencor Chip CM5 (GE Healthcare), or alternatively, chips produced by allowing preliminarily biotinylated antigen peptides to interact with and immobilize onto a Series S Sensor Chip SA (certified) (GE Healthcare) were used. Antibodies of interest were captured onto an antigen peptide-immobilized chip, and allowed to interact to each FcγR diluted with running buffer. To regenerate and repeatedly use the chip, the antibodies captured on the chip were washed off by reacting 10 mM glycine-HCl, pH 1.5.

He/Con_2b | Binder
58.2 % of GpH7-A5/GpH7-B3/GpL16-k0 (=100) | B1
51.5 % of GpH7-A5/GpH7-B3/GpL16-k0 (=100) | B2
14.9 % of GpH7-A5/GpH7-B3/GpL16-k0 (=100) | B3
38.3 % of GpH7-A5/GpH7-B3/GpL16-k0 (=100) | B4
3.2 % of GpH7-A5/GpH7-B3/GpL16-k0 (=100) | B5
33.4 % of GpH7-A5/GpH7-B3/GpL16-k0 (=100) | B6
10 % of GpH7-A5/GpH7-B3/GpL16-k0 (=100) | B7
0.6 % of GpH7-A5/GpH7-B3/GpL16-k0 (=100) | B8
89.6 % of GpH7-A5/GpH7-B3/GpL16-k0 (=100) | B9
6.1 % of GpH7-A5/GpH7-B3/GpL16-k0 (=100) | B10
3.2 % of GpH7-A5/GpH7-B3/GpL16-k0 (=100) | B11
15 % of GpH7-A5/GpH7-B3/GpL16-k0 (=100) | B12
11.3 % of GpH7-A5/GpH7-B3/GpL16-k0 (=100) | B13
1.1 % of GpH7-A5/GpH7-B3/GpL16-k0 (=100) | B14
46.6 % of GpH7-A5/GpH7-B3/GpL16-k0 (=100) | B15
27.9 % of GpH7-A5/GpH7-B3/GpL16-k0 (=100) | B16
16 % of GpH7-A5/GpH7-B3/GpL16-k0 (=100) | B17

Target: T2, FcγRIIa H
Experiment: as above
Method: as §1, §2

He/Con_2aH | Binder
147 % of GpH7-A5/GpH7-B3/GpL16-k0 (=100) | B1
71.5 % of GpH7-A5/GpH7-B3/GpL16-k0 (=100) | B2
27.8 % of GpH7-A5/GpH7-B3/GpL16-k0 (=100) | B3
48.6 % of GpH7-A5/GpH7-B3/GpL16-k0 (=100) | B4
4.6 % of GpH7-A5/GpH7-B3/GpL16-k0 (=100) | B5
47.7 % of GpH7-A5/GpH7-B3/GpL16-k0 (=100) | B6
13.5 % of GpH7-A5/GpH7-B3/GpL16-k0 (=100) | B7
3.7 % of GpH7-A5/GpH7-B3/GpL16-k0 (=100) | B8
111 % of GpH7-A5/GpH7-B3/GpL16-k0 (=100) | B9
12.4 % of GpH7-A5/GpH7-B3/GpL16-k0 (=100) | B10
4.1 % of GpH7-A5/GpH7-B3/GpL16-k0 (=100) | B11
28 % of GpH7-A5/GpH7-B3/GpL16-k0 (=100) | B12
19.8 % of GpH7-A5/GpH7-B3/GpL16-k0 (=100) | B13
3.2 % of GpH7-A5/GpH7-B3/GpL16-k0 (=100) | B14
89.1 % of GpH7-A5/GpH7-B3/GpL16-k0 (=100) | B15
98.2 % of GpH7-A5/GpH7-B3/GpL16-k0 (=100) | B16
24.1 % of GpH7-A5/GpH7-B3/GpL16-k0 (=100) | B17

Target: T2, FcγRIIa H
Experiment: SPR; He/Con for FcγRIIa H divided by He/Con for FcγRIIb

He_2aH/2b (IIaH/IIb) | Binder
2.52 ratio | B1
1.39 ratio | B2
1.87 ratio | B3
1.27 ratio | B4
1.42 ratio | B5
1.43 ratio | B6
1.35 ratio | B7
6.07 ratio | B8
1.24 ratio | B9
2.01 ratio | B10
1.28 ratio | B11
1.87 ratio | B12
1.75 ratio | B13
2.86 ratio | B14
1.91 ratio | B15
3.51 ratio | B16
1.5 ratio | B17
